This is an account of results in patent US20160039896A1 (Stanford University, published 2016).

Assay [1] concerns the target U87MG human glioblastoma cells. Description: flow cytometry titration on U87MG cells, anti-FLAG detection. A general note: Flow cytometry measures light scatter and fluorescence of single cells or particles in a stream.
For assay [2], the target named is VEGFR2 and αvβ3 integrin on SVR angiosarcoma cells (murine). Put plainly: flow cytometry titration on SVR murine angiosarcoma cells (VEGFR2 and αvβ3 integrin), anti-FLAG detection.
In assay [3] the target is VEGFR2 and αvβ3 integrin on HUVEC. Put plainly: flow cytometry titration on HUVEC (VEGFR2 and αvβ3 integrin), anti-FLAG detection.
Assay [4] shares this target. Put plainly: cell-based or functional assay.
In assay [5] the target is T1, recombinant human VEGFR2 extracellular domain (human, UniProt P35968 20-764).
T1 construct: extracellular domain; Bought (Calbiochem); also called KDR; Flk-1
Description: yeast surface display of individual clones, soluble VEGFR2.

T1 sequence (P35968 20-764): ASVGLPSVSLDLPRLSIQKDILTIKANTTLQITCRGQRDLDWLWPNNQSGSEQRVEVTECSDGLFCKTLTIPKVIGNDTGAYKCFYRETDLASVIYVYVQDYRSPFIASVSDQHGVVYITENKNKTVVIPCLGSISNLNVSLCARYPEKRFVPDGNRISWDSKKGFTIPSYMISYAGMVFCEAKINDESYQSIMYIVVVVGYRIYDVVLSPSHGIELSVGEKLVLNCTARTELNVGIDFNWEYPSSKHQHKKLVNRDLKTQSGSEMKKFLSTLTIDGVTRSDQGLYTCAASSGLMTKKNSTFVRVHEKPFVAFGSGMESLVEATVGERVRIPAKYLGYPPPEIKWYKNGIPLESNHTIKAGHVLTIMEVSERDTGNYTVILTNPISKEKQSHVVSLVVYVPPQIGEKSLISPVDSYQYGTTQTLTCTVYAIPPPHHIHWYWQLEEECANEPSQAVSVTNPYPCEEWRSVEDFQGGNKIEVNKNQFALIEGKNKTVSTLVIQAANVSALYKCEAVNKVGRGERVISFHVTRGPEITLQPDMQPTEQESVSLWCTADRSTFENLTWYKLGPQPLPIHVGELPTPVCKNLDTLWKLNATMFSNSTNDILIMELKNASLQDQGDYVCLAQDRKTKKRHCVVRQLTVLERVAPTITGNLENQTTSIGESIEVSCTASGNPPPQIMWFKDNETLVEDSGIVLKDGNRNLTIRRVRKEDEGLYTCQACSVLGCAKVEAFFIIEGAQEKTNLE

B1: scVEGFrgd-7H (ligand)
chain: EVVKAMDVYQRSYCHPIETLVDIFQEYPDEIEYIFKPSCVPLMRCGGCCNDAGLECVPTEESNITMQIMRIKPHQGQHIGEMSFLQHNKCECRPKKDGSTSGSGKSSEGKGEVVKFMDVYQRSYCHPIETLVDIFQEYPDEIEYAFKPSCVPLMRCGGCCNDEGLECVPTEESNITMQIMRPGGRGDSAYHIGEMSFLQHNKCECRPKKDTR
A word on the Kd: it is a measure of binding affinity in units of concentration. A higher Kd goes with weaker binding. In the case of B1, the Kd in assay [1] was 15.6 nM; in assay [2], 18 nM; in assay [3], 12 nM.

B2: scVEGFrgd-7P (ligand)
chain: EVVKAMDVYQRSYCHPIETLVDIFQEYPDEIEYIFKPSCVPLMRCGGCCNDAGLECVPTEESNITMQIMRIKPHQGQHIGEMSFLQHNKCECRPKKDGSTSGSGKSSEGKGEVVKFMDVYQRSYCHPIETLVDIFQEYPDEIEYAFKPSCVPLMRCGGCCNDEGLECVPTEESNITMQIMRPASRGDSPPHIGEMSFLQHNKCECRPKKDTR
Take B2: the Kd came out at 29 nM in assay [1], 31 nM in assay [2] and 45 nM in assay [3].

B3: scVEGFrgd-7I (ligand)
chain: EVVKAMDVYQRSYCHPIETLVDIFQEYPDEIEYIFKPSCVPLMRCGGCCNDAGLECVPTEESNITMQIMRIKPHQGQHIGEMSFLQHNKCECRPKKDGSTSGSGKSSEGKGEVVKFMDVYQRSYCHPIETLVDIFQEYPDEIEYAFKPSCVPLMRCGGCCNDEGLECVPTEESNITMQIMRPSVRRGDSPASHIGEMSFLQHNKCECRPKKDTR
Take B3: the Kd in assay [1] was determined as 13.9 nM; in assay [2], 37 nM; in assay [3], 6 nM. The inhibition of VEGF-induced autophosphorylation of VEGFR-2 in HUVEC, in the presence of vitronectin in assay [4] was determined as 80%.

B4: scVEGFrgd-7B-K (ligand)
chain: EVVKAMDVYQRSYCHPIETLVDILQEYPDEIEYIFKPSCVPLMRCGGCCNDAGLECVPTEESNITMQIMRIKPYQGQHIGEMSFLQHNKCECRPKKDGSTSGSGKSSEGKGEVVRFMDVYQRSYCHPIETLVDIFQEYPDEIEYAFKPSCVPLMRCGGCCNHEGLECVPTEESNITMQIMRPHDRGDAGVHIGEMSFLQHNKCECRPKED
notes: built from the parts; F17A, E64A and I46A are kept because the RGD libraries were made from scVEGFmut
As for B4, the binding result in assay [5] is given as “binds”.

B5: scVEGFrgd-7B-C (ligand)
chain: EVVKAMDVYQGSYCHPIETLVDILQEYPDEIEYIFKPSCVPLMRCGGCCNNAGLECVPTEESNITMQIMRIKPYQGQHIGEMSFLQHNKCECRPKKGGSTSGSGKSSEGKGEVVKFMDVYQRSYCHPIETLVDIFQEYPDEIEYAFKPSCVPLMRCGGCCNHEGLECVPTEESNITMRIMRPHDRGDAGVHIGEMSFLQHNKCECRPKRD
notes: as for B4
For the molecule B5, the binding result in assay [5] is given as “binds”.

B6: scVEGFrgd-7B-A (ligand)
chain: EVVKAMDVYQRSYCHPIETLVDILQEYPDEIEYIFKPSCVPLMRCGGCCNDAGLECVPTEESNITMQVMRIKPYRGQHIGEMSFLQHNKCECRPKKDGSTSGSGKSSEGKGEVVKFMDVYQRSYCHPIETLVDIFQEYPDEIEYAFKPSCVPLMRCGGCCNNEGLECVPTEESNITMQIMRPHDRGDAGVHIGEMSFLQHNKCECRPRKD
notes: as for B4
Consider B6, for which the binding result in assay [5] is listed as “binds”.
